The record followed here is article PMC2279300.

In assay [1] the target is biotinylated oligopeptide spanning one repeat unit of the TARP phosphodomain, first tyrosine phosphorylated (pY1) (Chlamydia trachomatis serovar L2).
The target of assay [2] is biotinylated oligopeptide spanning one repeat unit of the TARP phosphodomain, second tyrosine phosphorylated (pY2) (Chlamydia trachomatis serovar L2).
Chain of biotinylated oligopeptide spanning one repeat unit of the TARP phosphodomain, second tyrosine phosphorylated (pY2) (Chlamydia trachomatis serovar L2) (Q6GX35 174-222): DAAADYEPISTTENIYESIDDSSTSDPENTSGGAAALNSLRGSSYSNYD

Chain of biotinylated oligopeptide spanning one repeat unit of the TARP phosphodomain, first tyrosine phosphorylated (pY1) (Chlamydia trachomatis serovar L2) (Q6GX35 174-222): as above

For “Sos1 (from UniProt Q07889 1-1333) (natural protein)”, in assay [1], the guanine nucleotide exchange activity towards His-Rac1 of the pY1 oligopeptide precipitate from regular HeLa lysate (32P label retained on filters) is 31000 CPM.
In assay [1], “Vav2 (from UniProt P52735 1-878) (natural protein)” had a guanine nucleotide exchange activity towards His-Cdc42 of the pY1 oligopeptide precipitate from lysate supplemented with PI 3,4,5-P3 (32P label retained on filters) of 28700 CPM and a guanine nucleotide exchange activity towards His-Rac1 of the pY1 oligopeptide precipitate from lysate supplemented with PI 3,4,5-P3 (32P label retained on filters) of 51200 CPM. Moreover, in assay [2], the guanine nucleotide exchange activity towards His-Cdc42 of the pY2 oligopeptide precipitate from lysate supplemented with PI 3,4,5-P3 (32P label retained on filters) came to 23000 CPM and the guanine nucleotide exchange activity towards His-Rac1 of the pY2 oligopeptide precipitate from lysate supplemented with PI 3,4,5-P3 (32P label retained on filters) turned out to be 31700 CPM.
